# Data taken from patent US20200216495A1 (ADRX, published 2020).
# Values joined by “and” are separate entries in the source; they are usually repeats but may differ in a detail not shown here. Equal entries are not always repeated. Square brackets hold non-standard residues; d marks the D form. Ends that are not written are not given here.
# B1: wlrvqvklw (peptide)
# peptide: [dW][dL][dR][dV][dQ][dV][dK][dL][dW]
# B2: wwlrihww (peptide)
# peptide: [dW][dW][dL][dR][dI][dH][dW][dW]
# B3: wklwlrww (peptide)
# peptide: [dW][dK][dL][dW][dL][dR][dW][dW]
# B4: feirlwhh (peptide)
# peptide: [dF][dE][dI][dR][dL][dW][dH][dH]
# B5: wkvwvryw (peptide)
# peptide: [dW][dK][dV][dW][dV][dR][dY][dW]
# B6: frlklrfh (peptide)
# peptide: [dF][dR][dL][dK][dL][dR][dF][dH]
# B7: hrlkvrww (peptide)
# peptide: [dH][dR][dL][dK][dV][dR][dW][dW]
# B8: wriwiryw (peptide)
# peptide: [dW][dR][dI][dW][dI][dR][dY][dW]
# B9: wrfhihfy (peptide)
# peptide: [dW][dR][dF][dH][dI][dH][dF][dY]
# B10: fkirikwh (peptide)
# peptide: [dF][dK][dI][dR][dI][dK][dW][dH]
# B11: wrfkvrw (peptide)
# peptide: [dW][dR][dF][dK][dV][dR][dW]
# B12: frikirw (peptide)
# peptide: [dF][dR][dI][dK][dI][dR][dW]
# B13: lririrfh (peptide)
# peptide: [dL][dR][dI][dR][dI][dR][dF][dH]
# B14: wrlkvrwl (peptide)
# peptide: [dW][dR][dL][dK][dV][dR][dW][dL]
# B15: wririrw (peptide)
# peptide: [dW][dR][dI][dR][dI][dR][dW]
# B16: lkiriryh (peptide)
# peptide: [dL][dK][dI][dR][dI][dR][dY][dH]
# B17: wklklrww (peptide)
# peptide: [dW][dK][dL][dK][dL][dR][dW][dW]
# B18: felrlhwh (peptide)
# peptide: [dF][dE][dL][dR][dL][dH][dW][dH]
# B19: wrlriww (peptide)
# peptide: [dW][dR][dL][dR][dI][dW][dW]
# B20: wrlriwww (peptide)
# peptide: [dW][dR][dL][dR][dI][dW][dW][dW]
# B21: frlriww (peptide)
# peptide: [dF][dR][dL][dR][dI][dW][dW]
# B22: lairihy (peptide)
# peptide: [dL][dA][dI][dR][dI][dH][dY]
# B23: lkirihlh (peptide)
# peptide: [dL][dK][dI][dR][dI][dH][dL][dH]
# B24: rlkvrwww (peptide)
# peptide: [dR][dL][dK][dV][dR][dW][dW][dW]
# B25: wklklwww (peptide)
# peptide: [dW][dK][dL][dK][dL][dW][dW][dW]
# B26: fkihikhy (peptide)
# peptide: [dF][dK][dI][dH][dI][dK][dH][dY]
# B27: lkleirwh (peptide)
# peptide: [dL][dK][dL][dE][dI][dR][dW][dH]
# B28: friklkwh (peptide)
# peptide: [dF][dR][dI][dK][dL][dK][dW][dH]
# B29: wrlkvrwe (peptide)
# peptide: [dW][dR][dL][dK][dV][dR][dW][dE]
# B30: fklklww (peptide)
# peptide: [dF][dK][dL][dK][dL][dW][dW]
# B31: fklklrw (peptide)
# peptide: [dF][dK][dL][dK][dL][dR][dW]
# B32: feirlhhw (peptide)
# peptide: [dF][dE][dI][dR][dL][dH][dH][dW]
# B33: lrvqvrl (peptide)
# peptide: [dL][dR][dV][dQ][dV][dR][dL]
# B34: fhleirhw (peptide)
# peptide: [dF][dH][dL][dE][dI][dR][dH][dW]
# B35: lkilihyh (peptide)
# peptide: [dL][dK][dI][dL][dI][dH][dY][dH]
# B36: ldlrfkly (peptide)
# peptide: [dL][dD][dL][dR][dF][dK][dL][dY]
# B37: lkirilyh (peptide)
# peptide: [dL][dK][dI][dR][dI][dL][dY][dH]
# B38: lkiriheh (peptide)
# peptide: [dL][dK][dI][dR][dI][dH][dE][dH]
# B39: lkirifyh (peptide)
# peptide: [dL][dK][dI][dR][dI][dF][dY][dH]
# B40: wwrvklrw (peptide)
# peptide: [dW][dW][dR][dV][dK][dL][dR][dW]
# B41: mrlrihw (peptide)
# peptide: [dM][dR][dL][dR][dI][dH][dW]
# B42: fhihikfh (peptide)
# peptide: [dF][dH][dI][dH][dI][dK][dF][dH]
# B43: wrlnvnw (peptide)
# peptide: [dW][dR][dL][dN][dV][dN][dW]
# B44: wfkiklel (peptide)
# peptide: [dW][dF][dK][dI][dK][dL][dE][dL]
# B45: wrlwihw (peptide)
# peptide: [dW][dR][dL][dW][dI][dH][dW]
# B46: wrlkvrwr (peptide)
# peptide: [dW][dR][dL][dK][dV][dR][dW][dR]
# B47: felhikwh (peptide)
# peptide: [dF][dE][dL][dH][dI][dK][dW][dH]
# B48: fkiklkw (peptide)
# peptide: [dF][dK][dI][dK][dL][dK][dW]
# B49: lkiriwyh (peptide)
# peptide: [dL][dK][dI][dR][dI][dW][dY][dH]
# B50: fkielhwh (peptide)
# peptide: [dF][dK][dI][dE][dL][dH][dW][dH]
# B51: wrlrihww (peptide)
# peptide: [dW][dR][dL][dR][dI][dH][dW][dW]
# B52: frlrihwf (peptide)
# peptide: [dF][dR][dL][dR][dI][dH][dW][dF]
# B53: lkiriehy (peptide)
# peptide: [dL][dK][dI][dR][dI][dE][dH][dY]
# B54: frlkvrwf (peptide)
# peptide: [dF][dR][dL][dK][dV][dR][dW][dF]
# B55: lkiriay (peptide)
# peptide: [dL][dK][dI][dR][dI][dA][dY]
# B56: wrlrlrw (peptide)
# peptide: [dW][dR][dL][dR][dL][dR][dW]
# B57: wkvnvrlw (peptide)
# peptide: [dW][dK][dV][dN][dV][dR][dL][dW]
# B58: lkirirfh (peptide)
# peptide: [dL][dK][dI][dR][dI][dR][dF][dH]
# B59: fwlklrwf (peptide)
# peptide: [dF][dW][dL][dK][dL][dR][dW][dF]
# B60: lefelkyw (peptide)
# peptide: [dL][dE][dF][dE][dL][dK][dY][dW]
# Target: Ac-VQIINK-NH2 (SEQ ID NO: 23) (N-terminal acetyl (Ac); C-terminal amide (NH2))
# Assay: cell-based or functional assay
row,VQIINK Inhibition IC50,Binder
1,1.25 µm,B1
2,1.83 µm,B2
3,1.58 µm,B3
4,1.17 µm,B4
5,1.53 µm,B5
6,1.8 µm,B6
7,1.77 µm,B7
8,1.2 µm,B8
9,1.35 µm,B9
10,1.3 µm,B10
11,1.66 µm,B11
12,1.47 µm,B12
13,1.84 µm,B13
14,1.37 µm,B14
15,1.73 µm,B15
16,1.49 µm and 2.92 µm,B16
17,1.76 µm,B17
18,1.57 µm,B18
19,1.34 µm,B19
20,1.75 µm,B20

row,VQIINK Inhibition IC50,Binder
1,1.4 µm,B21
2,1.71 µm,B22
3,1.81 µm,B23
4,1.21 µm,B24
5,1.44 µm,B25
6,1.77 µm,B26
7,1.76 µm,B27
8,1.52 µm,B28
9,1.54 µm,B29
10,1.3 µm,B30
11,1.2 µm,B31
12,1.78 µm,B32
13,1.48 µm,B33
14,1.79 µm,B34
15,1.41 µm,B35
16,1.55 µm,B36
17,1.46 µm,B37
18,1.75 µm,B38
19,1.53 µm,B39
20,1.57 µm,B40

row,VQIINK Inhibition IC50,Binder
1,1.58 µm,B41
2,1.16 µm,B42
3,1.38 µm,B43
4,1.74 µm,B44
5,1.73 µm,B45
6,1.7 µm,B46
7,1.29 µm,B47
8,1.55 µm,B48
9,1.89 µm,B49
10,1.41 µm,B50
11,1.88 µm,B51
12,1.81 µm,B52
13,1.57 µm,B53
14,1.26 µm and 2.57 µm,B54
15,1.41 µm,B55
16,1.54 µm,B56
17,1.29 µm,B57
18,1.24 µm,B58
19,1.63 µm,B59
20,1.38 µm,B60
